Sequences and labels used below:
B1: Aβ 25-35 (peptide)
peptide: GSNKGAIIGLM
modifications: also: biotinylated in some assays, site not given here
notes: Used both biotinylated and unlabelled; also called biotinylated Aβ 25-35
B2: EAβBP peptide (ERAB residues 99-108) (peptide, UniProt Q99714 99-108, looked up)
peptide: KTYNLKKGQT
notes: range 99-108; 21 covers only ERAB 101-109; also called EAβBD

Test [1] has as its target T1, recombinant human cdc2 (human, UniProt P06493 1-297, limits assumed).
T1 construct: Coated on ELISA plates at 1 µg/ml; also called p34-cdc2
The test is described as follows: ELISA, cdc2-coated plate, biotinylated peptide 200 pM. As for the experimental part: (§1) ELISA plates were coated with recombinant human cdc2 or the cdc2 119-133 peptide fragment (CDKP1) (1 μg ml⁻¹) in carbonate buffer and unoccupied sites blocked with 5% (w/v) dried milk. […] After washing to remove unbound material, an alkaline phosphatase polymer-streptavidin conjugate (Sigma, Dorset, UK) was added and incubated at 37° C. for 2 hours. After washing to remove unbound material p-nitrophenylphosphate substrate was added and absorbance at 405 nm determined.
(In general: ELISA stands for enzyme-linked immunosorbent assay.)

Test [2] deals with B2. The test is described as follows: ELISA, EAβBP-coated plate. As for the experimental part: (§2) After washing to remove unbound material, an alkaline phosphatase polymer-streptavidin conjugate (Sigma, Dorset, UK) was added and incubated at 37° C. for 2 hours. After washing to remove unbound material, p-nitrophenylphosphate substrate was added and absorbance at 405 nm determined.

Test [3] deals with T2, recombinant human cyclin B1 (human, UniProt P14635 1-433, limits assumed).
T2 construct: Coated on ELISA plates
T2 sequence (P14635 whole entry): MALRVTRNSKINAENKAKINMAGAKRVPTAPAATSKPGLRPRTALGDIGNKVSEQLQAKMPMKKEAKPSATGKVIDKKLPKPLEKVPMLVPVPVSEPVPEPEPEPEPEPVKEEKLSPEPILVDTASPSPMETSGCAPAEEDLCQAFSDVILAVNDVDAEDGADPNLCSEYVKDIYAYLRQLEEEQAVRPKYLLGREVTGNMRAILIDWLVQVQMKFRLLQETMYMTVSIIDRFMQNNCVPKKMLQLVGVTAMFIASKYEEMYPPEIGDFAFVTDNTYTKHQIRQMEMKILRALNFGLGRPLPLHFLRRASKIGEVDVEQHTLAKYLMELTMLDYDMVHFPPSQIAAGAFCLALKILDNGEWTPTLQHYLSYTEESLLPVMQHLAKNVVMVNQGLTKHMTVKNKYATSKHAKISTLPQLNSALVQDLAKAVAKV
The test is described as follows: ELISA, cyclin B1-coated plate. As for the experimental part: as §1
Cyclins are co-factors for cdc2 which are required for enzyme activity. These proteins also contain substrate recognition sequences which may play a role in the recruitment of substrate molecules to the active cdc2/cyclin complex. The recombinant cdc2/cyclin enzyme complex used in the above phosphorylation experiments contained cyclin B1. […] Binding assays as described above using cyclin B1 coated plates were carried out.

The target in test [4] is T3, CAβBP peptide (catalase residues 400-409) (human, UniProt P04040 400-409).
T3 construct: range 400-409; 20 covers only catalase 402-414; also called CAIIBP; CARBP
T3 peptide (looked up): GAPNYYPNSF
The test is described as follows: ELISA, CAβBP-coated plate. As for the experimental part: as §2

Test [5] deals with T4, Aβ 1-42 (biotinylated (LinKit-Biolink kit, site not stated) where used as the labelled tracer; unlabelled where used as competitor or in activity assays).
T4 construct: catalase and cytotoxicity assays; also called biotinylated Aβ 1-42; Amyloid-β 1-42
The test is described as follows: competition ELISA, EAβBP-coated plate, Scatchard analysis. As for the experimental part:
as §2

Where no end group is shown, it is not given here.

T1 sequence (P06493 whole entry): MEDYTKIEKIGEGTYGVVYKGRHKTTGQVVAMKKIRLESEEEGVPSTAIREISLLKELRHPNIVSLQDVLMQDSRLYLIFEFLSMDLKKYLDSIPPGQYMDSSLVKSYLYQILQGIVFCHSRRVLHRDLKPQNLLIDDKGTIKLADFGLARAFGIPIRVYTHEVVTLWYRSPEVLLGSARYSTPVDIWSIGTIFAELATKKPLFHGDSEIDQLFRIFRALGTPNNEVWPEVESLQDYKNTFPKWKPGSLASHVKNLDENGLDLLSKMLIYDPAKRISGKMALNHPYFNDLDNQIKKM

As for B1, the binding result in test [1] is given as “binds”; in test [2], “no binding (tested: 200 pM biotinylated peptide)”; in test [3] it was “binds”.
Regarding VHHQKLVFFAEDVGSNK (also: biotinylated, site not given here, also called biotinylated Aβ 12-28) [Aβ 12-28], in test [4], the binding result is given as “no binding (tested: 200 pM biotinylated peptide)”.
As usually defined, the Kd is the free concentration of one partner at which half of the binding sites on the other are occupied at equilibrium, for simple one-to-one binding. Read a high Kd as weaker binding. The molecule B2 gave a Kd in test [5] of 107 nM.

These data come from patent US20040072753A1 (published 2004).
